We go through 18 molecules from patent US20230348578A1, “CONFORMATION-SPECIFIC ANTIBODIES THAT BIND TAU PROTEIN AND USES THEREOF” (Beth Israel Deaconess Medical Center, Inc., priority 2020, published 2023).

Substitutions are numbered along the chain they refer to.

The term Kd denotes the constant that tells how readily two partners part at equilibrium.

The target in this assay is P-tau peptide (wild-type P-tau peptide and its pure cis or cis-locked, and pure trans counterparts). Put plainly: Biacore (SPR) with P-tau peptide. In general terms: In SPR one partner is held on a chip, and binding of the other changes the refractive index at the surface.

B1: Cis-mAb HT18 (humanized) (antibody, V domains shown)
VH: QVQLVQSGAEVKKPGSSVKVSCKASGYTFTSYWIHWVRQAPGQGLEWMGVIDPSDSYTRYNQKFKGRVTITRDTSMSTAYTELSSLRSEDTAVYYCTTWEVDYWGQGTLVTVSS
VL: DIQMTQSPSTLSASVGDRVTITCRSSQSLVHSDGNTYLHWYQQKPGKAPKLLIYKVSNRFSGVPSRFSGSGSGTEFTLTISSLQPDDFATYYCSQSTHVPWTFGQGTKLEIK
In the case of B1, the Kd came to 1.91 nM and the Relative KD was 1.52 fold of HT13.

B2: Cis-mAb HT13 (mouse-human chimera, control) (antibody, V domains shown)
VH: QVQLQQPGAELVKPGASVKMSCKASGYTFTSYWIHWVKQRPGQGLEWIGVIDPSDSYTRYNQKFKGKATLTVDTSSSTAYMQLSSLTSEDSAVYYCTTWEVDYWGQGTTLTVSS
VL: DVVMTQTPLSLPVSLGDQASISCRSSQSLVHSDGNTYLHWYLQKPGQSPKLLIYKVSNRFSGVPDRFSGSGSGTDFTLKISRLEAEDLGVYFCSQSTHVPWTFGGGTKLEIK
For the molecule B2, the Kd is 1.26 nM and the Relative KD is 1 fold of HT13.

B3: Cis-mAb HT17 (humanized) (antibody, V domains shown)
VH: B1 VH with S16A, A40R, M48I, M76A, T81M
VL: B2 VL with T7S, S14T, D17Q, Q18P, H39N, K50Q, L83V, L88V, L109V
As for B3, the Kd was 4940 nM and the Relative KD was 3920 fold of HT13.

B4: Cis-mAb HT7 (humanized) (antibody, V domains shown)
VH: B1 VH with S16A, A40R, M48I, I70L, R72V, M76A, T81M
VL: B2 VL with T7S, S14T, D17Q, Q18P, K50Q, F60D, L83V, L88V, L109V
On to B4, for which the Kd came to 10.8 nM and the Relative KD was 8.57 fold of HT13.

B5: Cis-mAb HT3 (humanized) (antibody, V domains shown)
VH: B1 VH with S16A, A40R, M48I, I70L, R72V, M76A, T81M
VL: B2 VL with T7S, S14T, D17Q, Q18P, K50Q, L83V, L88V, L109V
As to B5, the Kd came to 3.51 nM and the Relative KD was 2.79 fold of HT13.

B6: Cis-mAb HT4 (humanized) (antibody, V domains shown)
VH: B1 VH with S16A, A40R, M48I, M76A, T81M
VL: B2 VL with T7S, S14T, D17Q, Q18P, K50Q, L83V, L88V, L109V
Regarding B6, the dissociation constant (Kd) was 2.42 nM and the Relative KD is 1.92 fold of HT13.

B7: Cis-mAb HT1 (humanized) (antibody, V domains shown)
VH: B2 VH with Q5V, P7S, V12K, K67R, S76A, L110V
VL: B2 VL with T7S, S14T, D17Q, Q18P, K50Q, L83V, L88V, L109V
As to B7, the Kd is 1.83 nM and the Relative KD is 1.45 fold of HT13.

B8: Cis-mAb HT12 (humanized) (antibody, V domains shown)
VH: B1 VH with S16A, A40R, M48I, M76A, T81M
VL: B2 VL with T7S, S14T, D17Q, Q18P, K50Q, L83V, L88V, F92Y, L109V
Take B8: the Kd is 3.55 nM and the Relative KD is 2.82 fold of HT13.

B9: Cis-mAb HT16 (humanized) (antibody, V domains shown)
VH: B1 VH with S16A, A40R, M48I, I70L, R72V, M76A, T81M
VL: B2 VL with T7S, S14T, D17Q, Q18P, H39N, K50Q, L83V, L88V, L109V
Turning to B9, the Kd stood at 3.26 nM and the Relative KD is 2.59 fold of HT13.

B10: Cis-mAb HT14 (humanized) (antibody, V domains shown)
VH: B2 VH with Q5V, P7S, V12K, K67R, S76A, L110V
VL: B2 VL with T7S, S14T, D17Q, Q18P, H39N, K50Q, L83V, L88V, L109V
For B10, the Kd was 30.2 nM and the Relative KD is 24 fold of HT13.

B11: Cis-mAb HT9 (humanized) (antibody, V domains shown)
VH: B2 VH with Q5V, P7S, V12K, K67R, S76A, L110V
VL: B2 VL with T7S, S14T, D17Q, Q18P, K50Q, L83V, L88V, F92Y, L109V
For B11, the Kd amounted to 1.89 nM and the Relative KD was 1.5 fold of HT13.

B12: Cis-mAb HT6 (humanized) (antibody, V domains shown)
VH: B1 VH with S16A, V20M, R38K, A40R, M48I, V68A, I70L, R72V, M76A, T81M
VL: B2 VL with T7S, S14T, D17Q, Q18P, K50Q, F60D, L83V, L88V, L109V
On to B12, for which the Kd was found to be 6.48 nM and the Relative KD is 5.14 fold of HT13.

B13: Cis-mAb HT2 (humanized) (antibody, V domains shown)
VH: B1 VH with S16A, V20M, R38K, A40R, M48I, V68A, I70L, R72V, M76A, T81M
VL: B2 VL with T7S, S14T, D17Q, Q18P, K50Q, L83V, L88V, L109V
For B13, the Kd is 1.62 nM and the Relative KD is 1.29 fold of HT13.

B14: Cis-mAb HT15 (humanized) (antibody, V domains shown)
VH: B1 VH with S16A, V20M, R38K, A40R, M48I, V68A, I70L, R72V, M76A, T81M
VL: B2 VL with T7S, S14T, D17Q, Q18P, H39N, K50Q, L83V, L88V, L109V
On to B14, for which the Kd came to 33.4 nM and the Relative KD was 26.5 fold of HT13.

B15: Cis-mAb HT11 (humanized) (antibody, V domains shown)
VH: B1 VH with S16A, A40R, M48I, I70L, R72V, M76A, T81M
VL: B2 VL with T7S, S14T, D17Q, Q18P, K50Q, L83V, L88V, F92Y, L109V
As for B15, the Kd was found to be 3.99 nM and the Relative KD was 3.17 fold of HT13.

B16: Cis-mAb HT5 (humanized) (antibody, V domains shown)
VH: B2 VH with Q5V, P7S, V12K, K67R, S76A, L110V
VL: B2 VL with T7S, S14T, D17Q, Q18P, K50Q, F60D, L83V, L88V, L109V
With B16, the Kd is 6.91 nM and the Relative KD is 5.48 fold of HT13.

B17: Cis-mAb HT8 (humanized) (antibody, V domains shown)
VH: B1 VH with S16A, A40R, M48I, M76A, T81M
VL: B2 VL with T7S, S14T, D17Q, Q18P, K50Q, F60D, L83V, L88V, L109V
Turning to B17, the Kd was determined as 7.68 nM and the Relative KD was 6.11 fold of HT13.

B18: Cis-mAb HT10 (humanized) (antibody, V domains shown)
VH: B1 VH with S16A, V20M, R38K, A40R, M48I, V68A, I70L, R72V, M76A, T81M
VL: B2 VL with T7S, S14T, D17Q, Q18P, K50Q, L83V, L88V, F92Y, L109V
With B18, the Kd is 1.77 nM and the Relative KD is 1.4 fold of HT13.
